In PMC5966431 one finds stoichiometry N data, which are given here for three substances.

What is called stoichiometry N is a count of units in the complex or per binding partner.

Experiment in all cases: SEC; Size-exclusion chromatography of the purified His6-tagged recombinant proteins. Column and buffer are not told for these proteins. Dimerization was not detected consistently under the authors' conditions.
For orientation: Size exclusion chromatography separates by hydrodynamic size, large species first.

Assay [1] concerns the target Mase04140 (PL17 family alginate lyase, subfamily 2, Alteromonas macleodii) (Alteromonas macleodii).
Assay [2] concerns the target Pedsa1196 (PL17 family alginate lyase, subfamily 2, Pedobacter saltans) (Pedobacter saltans).
Assay [3] addresses Valg4460 (PL17 family polysaccharide lyase, subfamily 2, Vibrio alginolyticus) (Vibrio alginolyticus).

Take “Mase04140 (PL17 family alginate lyase, subfamily 2, Alteromonas macleodii) (enzyme)”: the stoichiometry N in assay [1] amounted to 2.

Turning to “Pedsa1196 (PL17 family alginate lyase, subfamily 2, Pedobacter saltans) (enzyme)”, the stoichiometry N in assay [2] came to 2. Regarding “Valg4460 (PL17 family polysaccharide lyase, subfamily 2, Vibrio alginolyticus) (enzyme)”, in assay [3], the stoichiometry N came to 2.
